# Source: US20220074937A1 (BIOSWAN LABORATORIES, published 2022)
# B1: rabbit monoclonal antibody R19mab against FMC63 scFv (antibody, V domains shown)
# VH: QSLEESGGRLVTPGTPLTLTCTVSGIDFRNYGVSWVRQAPGKGLEWIGIFSSSGSTYYATWAKGRFTISKASSTTVDLKMTSLTTEDTATYFCARHPGPTNGWKLWGPGTLVTVSS
# VL: DVVMTQTPASVEAPVGGTVTIKCQASQSVSGYCSWYQQKPGQPPKLLIYRASTLESGVPSRFSGSGSGTDFTLTISDLECADAATYYCQSNYNSGSSSSAAAFGGGTEVVVK
# notes: Rabbit monoclonal IgG, expressed in 293T cells and purified on Protein A; also called No.0231 (rabbit B cell clone)
# Key:
# [1] = molecular target: T1, FMC63 scFv-His tag recombinant protein; test: BLI (Fortebio Octet), FMC63 scFv loaded on the sensor, R19mab at 15.6, 7.8, 3.9, 1.95 and 0.975 nM, 1:1 model; the same value stands in rows 1 to 5 of the drawn table (column Kd (M)); the text rounds it to 43 pM
# T1 construct: Expressed in 293T cells, purified on Ni-NTA; also called FMC63 scFv recombinant protein; CD19 CAR scFv recombinant protein
# T1 sequence (scFv, as listed by the source): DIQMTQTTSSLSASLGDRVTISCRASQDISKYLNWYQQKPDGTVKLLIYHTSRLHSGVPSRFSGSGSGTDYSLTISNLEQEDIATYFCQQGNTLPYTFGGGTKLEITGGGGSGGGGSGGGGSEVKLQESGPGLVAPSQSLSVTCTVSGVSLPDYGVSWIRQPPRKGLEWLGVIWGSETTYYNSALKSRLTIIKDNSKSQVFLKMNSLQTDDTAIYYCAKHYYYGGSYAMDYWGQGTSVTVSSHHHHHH
# Excerpt: (§1) In short, the biosensor was balanced offline in PBS buffer for 600 seconds, and then detected online for 60 seconds to establish a baseline. […] Data Analysis 6.2 evaluation software was used to analyze the data, and a 1:1 combination model was used for kinetic analysis.
# [2] = molecular target: T2, CD19 CAR containing FMC63 scFv, on the cell surface (CD19 CAR-T cells, CD19 CAR-293T cells); test: flow cytometry (MFI) on CD19 CAR-293T cells, R19mab titrated; printed beside EC50 = 1.58 nM, which the text gives
# T2 construct: Chimeric antigen receptor brought into T cells or 293T cells by lentivirus; also called FMC63 scFv CD19 CAR; CD19 CAR scFv on the cell surface; not shown: hinge, transmembrane and intracellular signalling regions of the CAR
# T2 sequence (chain, as listed by the source): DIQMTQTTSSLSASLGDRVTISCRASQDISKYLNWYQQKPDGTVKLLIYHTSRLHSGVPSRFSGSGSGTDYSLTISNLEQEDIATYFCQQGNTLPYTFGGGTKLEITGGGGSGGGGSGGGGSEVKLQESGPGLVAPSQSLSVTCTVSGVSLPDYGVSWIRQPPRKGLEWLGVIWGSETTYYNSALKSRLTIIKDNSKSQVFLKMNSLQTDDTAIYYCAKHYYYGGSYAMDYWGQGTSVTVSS
# Description: (§2) T cells were infected with CD19 CAR lentivirus or BCMA CAR lentivirus to obtain corresponding CAR-T cells. […] 2×10⁵ cells were suspended in 50 μL FACS buffer. 50 μL antibody solution was then added to 50 μL cell suspension and the mixture was incubated on ice for 30 minutes. The cells were then washed twice with cold FACS buffer. […] Table 1) and the mixture was incubated on ice for 30 minutes, after that the cells were washed twice with cold FACS buffer. The cells were resuspended in 200 μL FACS buffer and detected by flow cytometry.
# (§3) CD19 CAR-293T cells were obtained by infecting 293T cells with CD19 CAR lentivirus. […] 2×10⁵ CD19 CAR-293T cells were suspended in 50 μL FACS buffer.
# [3] = molecular target: T3, FMC63 antibody (murine anti-CD19 monoclonal antibody, Merck & Millipore MAB1794); test: ELISA, FMC63 antibody coated
# T3 construct: Whole mouse monoclonal antibody coated on the ELISA plate; also called CD19 antibody
# Description: (§4) Blocking was then performed with PBST (PBS containing 0.05% Tween 20) containing 5% BSA at 300 μL per well. […] The plate was washed with PBST and then incubated at room temperature for 30 minutes with goat anti-rabbit IgG polyclonal antibody coupled with horseradish peroxidase (HRP).
# [4] = molecular target: T1, FMC63 scFv-His tag recombinant protein; test: ELISA, FMC63 scFv coated
# Description: as §4
# [5] = molecular target: T2, CD19 CAR containing FMC63 scFv, on the …; test: flow cytometry on CD19 CAR-293T cells
# Description: as §2, §3
# [6] = molecular target: T1, FMC63 scFv-His tag recombinant protein; test: BLI (Fortebio Octet), FMC63 scFv on the sensor, R19mab 15.6-0.975 nM, 1:1 model
# Excerpt: as §1
binder,measurement,setting,value
B1,Kd,[1],43.1 pM
same,EC50,[2],0.237 µg/mL
same,EC50,[3],253 pM
same,EC50,[4],307 pM
same,EC50,[5],1580 pM
same,Kd,[6],43 pM
